Experiment: Light scattering of tirzepatide samples (apparent weight-average molecular weight, self-association)
Format: physicochemical
Conditions: Mounjaro™ matrix (5 mM phosphate buffer, 140 mM NaCl, pH=7.0), 5 mg/mL to 30 mg/mL
Method: Tirzepatide formulations were prepared for light scattering measurements, with compositions detailed in Tables 1.a and 1.b. Light scattering data were collected using an ALV-CGS3 goniometer-based light scattering instrument (ALV-GmbH, Langen, Germany), which is a self-contained system with 22 mW 633 nm HeNe laser. Samples were filtered into disposable glass tubes using appropriate filters. Corresponding drug product placebos were used as scattering blanks. A single 15- or 30-second-long acquisition at 90-degree scattering angle was collected per sample, using the dynamic light scattering (DLS) mode. The resulting DLS auto-correlation functions were analyzed using intensity-weighted regularized size distributions, and shown to be monomodal before proceeding. The time-averaged scattering intensity values of the samples, placebos and toluene were used to calculate the excess Rayleigh ratios.
Apparent weight-average molecular weight (WAMW) values were calculated using formula (1):
[formula] • where K is an optical constant, c is the peptide mass concentration, and R is the excess Rayleigh ratio. A refractive index increment (dn/dc) of 0.185 mL/g was assumed.
To study the effect of preservatives, m-cresol, phenol or benzyl alcohol at selected concentrations were added to a standard Mounjaro™ composition. […]

Q: For tirzepatide, which self-association of tirzepatide is on record?
A: monomer-trimer-hexamer equilibrium
